Test results as given in patent US20210246166A1 (Bayer, published 2021).
Numbered stars: 1 amine (or outer) side, 2 acyl side, 3 side chain; on linkers, the order of the positions; unused ones are H or OH. Bridge positions count the residues as written; N and C are the ends. Square brackets hold non-standard residues; d marks the D form. Primed or numbered codes have the meaning given here. Ends that are not written are not given here. TTDS = 1,13-diamino-4,7,10-trioxatridecan-succinamic acid, O=C(CCC(=O)[*:2])NCCCOCCOCCOCCCN[*:1]; Oic = O=C(O)[C@@H]1C[C@@H]2CCCC[C@@H]2N1; Pro‑D2″ = L-Proline (3,4-2H), deuterated; PEG6 = NCCOCCOCCOCCOCCOCCOCCC(=O)O; NMeI = CC[C@H](C)[C@H](NC)C(=O)O; tBuAla = CC(C)(C)C[C@H](N)C(=O)O; PEG5 = NCCOCCOCCOCCOCCOCCC(=O)O; Pen = CC(C)(S)[C@H](N)C(=O)O; NMeC = CN[C@@H](CS)C(=O)O; NMeA = CN[C@@H](C)C(=O)O; Orn = NCCC[C@H](N)C(=O)O; Sar = CNCC(=O)O

T1: recombinant human MASP1 active protease (amino acids 297-699, C-terminal His Tag) (human, UniProt P48740 297-699)
T1 sequence: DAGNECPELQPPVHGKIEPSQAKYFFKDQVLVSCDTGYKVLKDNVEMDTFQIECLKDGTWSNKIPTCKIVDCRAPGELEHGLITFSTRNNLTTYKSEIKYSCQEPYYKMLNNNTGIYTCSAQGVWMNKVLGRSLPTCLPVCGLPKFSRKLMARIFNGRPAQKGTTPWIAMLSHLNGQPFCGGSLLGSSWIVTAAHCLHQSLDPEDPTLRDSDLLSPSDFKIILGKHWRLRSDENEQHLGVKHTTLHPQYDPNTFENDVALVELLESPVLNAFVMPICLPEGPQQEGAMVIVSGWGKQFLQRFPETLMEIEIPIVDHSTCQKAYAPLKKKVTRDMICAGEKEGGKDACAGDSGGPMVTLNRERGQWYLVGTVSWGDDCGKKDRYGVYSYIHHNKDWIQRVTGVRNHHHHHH


Key:
[1] = target: recombinant human MASP2 active protease (amino acids 297-686, C-terminal His Tag) (human, UniProt O00187 297-686); assay: cell-based or functional assay
recombinant human MASP2 active protease (amino acids 297-686, C-terminal His Tag), sequence (O00187 other isoform, or with tags, fused parts or gaps limits assumed): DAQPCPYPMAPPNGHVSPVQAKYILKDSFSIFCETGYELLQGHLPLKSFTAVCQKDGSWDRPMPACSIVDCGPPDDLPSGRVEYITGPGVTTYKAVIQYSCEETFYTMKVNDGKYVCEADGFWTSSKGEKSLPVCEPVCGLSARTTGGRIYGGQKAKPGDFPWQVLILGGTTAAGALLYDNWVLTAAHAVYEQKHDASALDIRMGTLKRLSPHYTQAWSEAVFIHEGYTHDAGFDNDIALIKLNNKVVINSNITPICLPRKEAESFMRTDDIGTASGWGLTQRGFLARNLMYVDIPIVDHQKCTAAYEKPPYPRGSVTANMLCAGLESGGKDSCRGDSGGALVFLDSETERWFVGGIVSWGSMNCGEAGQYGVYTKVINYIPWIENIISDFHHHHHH

[2] = target: T1, recombinant human MASP1 active protease …; assay: cell-based or functional assay

Binder | human MASP2 IC50 [1] [nM] | human MASP1 IC50 [2] [nM]
AICSRSLP[Oic]I[Pen]IPQ-NH2 (disulfide 3-11; N-terminus assumed; SMILES CC[C@H](C)[C@H](NC(=O)[C@H](C)N)C(=O)N[C@H]1CSSC(C)(C)[C@@H](C(=O)N[C@H](C(=O)N2CCC[C@H]2C(=O)N[C@@H](CCC(N)=O)C(N)=O)[C@@H](C)CC)NC(=O)[C@H]([C@@H](C)CC)NC(=O)[C@@H]2C[C@@H]3CCCC[C@@H]3N2C(=O)[C@@H]2CCCN2C(=O)[C@H](CC(C)C)NC(=O)[C@H](CO)NC(=O)[C@H](CCCNC(=N)N)NC(=O)[C@H](CO)NC1=O) [AIC+SRSLP-(Oic)-I-(Pen)+IPQ-NH2] | 140 | 3.3
AICSRSL[Pro‑D2″][Oic]I[Pen]IPD-OH (disulfide 3-11) [AIC+SRSL-(Pro-D2)-(Oic)-I-(Pen)+IPD-OH] | 126 | 2.13
[Sar]ICSRSLP[Oic]I[Pen]IP[TTDS]-NH2 (disulfide 3-11; N-terminus assumed; SMILES CC[C@H](C)[C@H](NC(=O)CNC)C(=O)N[C@H]1CSSC(C)(C)[C@@H](C(=O)N[C@H](C(=O)N2CCC[C@H]2C(=O)NCCCOCCOCCOCCCNC(=O)CCC(N)=O)[C@@H](C)CC)NC(=O)[C@H]([C@@H](C)CC)NC(=O)[C@@H]2C[C@@H]3CCCC[C@@H]3N2C(=O)[C@@H]2CCCN2C(=O)[C@H](CC(C)C)NC(=O)[C@H](CO)NC(=O)[C@H](CCCNC(=N)N)NC(=O)[C@H](CO)NC1=O) [((N-Me)G)-IC+SRSLP-(Oic)-I-(Pen)+IP-(TTDS)-NH2] | 87 | 3.4
[2‑(Piperidin)acetyl]ICSRS[tBuAla]PPI[Pen]IPD-NH2 (disulfide 3-11) [(2-(Piperidin)acetyl)-IC+SRS-((tBu)A)-PPI-(Pen)+IPD-NH2] | 71 | 3.3
[Orn]ICSRS[tBuAla]PPI[Pen]IP-OH (disulfide 3-11; N-terminus assumed; SMILES CC[C@H](C)[C@H](NC(=O)[C@@H](N)CCCN)C(=O)N[C@H]1CSSC(C)(C)[C@@H](C(=O)N[C@H](C(=O)N2CCC[C@H]2C(=O)O)[C@@H](C)CC)NC(=O)[C@H]([C@@H](C)CC)NC(=O)[C@@H]2CCCN2C(=O)[C@@H]2CCCN2C(=O)[C@H](CC(C)(C)C)NC(=O)[C@H](CO)NC(=O)[C@H](CCCNC(=N)N)NC(=O)[C@H](CO)NC1=O) [(Orn)-IC+SRS-((tBu)A)-PPI-(Pen)+IP-OH] | 130 | 3.6
[NMeA]ICSRSLP[Oic]I[Pen]I-OH (disulfide 3-11; N-terminus assumed; SMILES CC[C@H](C)[C@H](NC(=O)[C@H]1NC(=O)[C@H]([C@@H](C)CC)NC(=O)[C@@H]2C[C@@H]3CCCC[C@@H]3N2C(=O)[C@@H]2CCCN2C(=O)[C@H](CC(C)C)NC(=O)[C@H](CO)NC(=O)[C@H](CCCNC(=N)N)NC(=O)[C@H](CO)NC(=O)[C@@H](NC(=O)[C@@H](NC(=O)[C@H](C)NC)[C@@H](C)CC)CSSC1(C)C)C(=O)O) [((N-Me)A)-IC+SRSLP-(Oic)-I-(Pen)+I-OH] | 410 | 3.4
[2‑(Diethylamino)acetyl]ICSRS[tBuAla]PPI[Pen]IPD-NH2 (disulfide 3-11) [(2-(Diethylamino)acetyl)-IC+SRS-((tBu)A)-PPI-(Pen)+IPD-NH2] | 98 | 3.5
A[NMeI]CSRS[tBuAla]PPI[NMeC]IPD-NH2 (disulfide 3-11; N-terminus assumed; SMILES CC[C@H](C)[C@@H]1NC(=O)[C@@H]2CCCN2C(=O)[C@@H]2CCCN2C(=O)[C@H](CC(C)(C)C)NC(=O)[C@H](CO)NC(=O)[C@H](CCCNC(=N)N)NC(=O)[C@H](CO)NC(=O)[C@@H](NC(=O)[C@H]([C@@H](C)CC)N(C)C(=O)[C@H](C)N)CSSC[C@@H](C(=O)N[C@H](C(=O)N2CCC[C@H]2C(=O)N[C@@H](CC(=O)O)C(N)=O)[C@@H](C)CC)N(C)C1=O) [A-((N-Me)I)-C+SRS-((tBu)A)-PPI-((N-Me)C)+IPD-NH2] | 620 | 1.2
[NMeA]ICSRSLP[Oic]I[Pen]IPQ-NH2 (disulfide 3-11; N-terminus assumed; SMILES CC[C@H](C)[C@H](NC(=O)[C@H](C)NC)C(=O)N[C@H]1CSSC(C)(C)[C@@H](C(=O)N[C@H](C(=O)N2CCC[C@H]2C(=O)N[C@@H](CCC(N)=O)C(N)=O)[C@@H](C)CC)NC(=O)[C@H]([C@@H](C)CC)NC(=O)[C@@H]2C[C@@H]3CCCC[C@@H]3N2C(=O)[C@@H]2CCCN2C(=O)[C@H](CC(C)C)NC(=O)[C@H](CO)NC(=O)[C@H](CCCNC(=N)N)NC(=O)[C@H](CO)NC1=O) [((N-Me)A)-IC+SRSLP-(Oic)-I-(Pen)+IPQ-NH2] | 190 | 3.5
[Sar]ICSRSLP[Oic]I[Pen]IP[PEG6]-NH2 (disulfide 3-11; N-terminus assumed; SMILES CC[C@H](C)[C@H](NC(=O)CNC)C(=O)N[C@H]1CSSC(C)(C)[C@@H](C(=O)N[C@H](C(=O)N2CCC[C@H]2C(=O)NCCOCCOCCOCCOCCOCCOCCC(N)=O)[C@@H](C)CC)NC(=O)[C@H]([C@@H](C)CC)NC(=O)[C@@H]2C[C@@H]3CCCC[C@@H]3N2C(=O)[C@@H]2CCCN2C(=O)[C@H](CC(C)C)NC(=O)[C@H](CO)NC(=O)[C@H](CCCNC(=N)N)NC(=O)[C@H](CO)NC1=O) [((N-Me)G)-IC+SRSLP-(Oic)-I-(Pen)+IP-(PEG5(22 atoms))-NH2] | 90 | 3.5
AICSRSLP[Oic]I[Pen]IPE-OH (disulfide 3-11; N-terminus assumed; SMILES CC[C@H](C)[C@H](NC(=O)[C@H](C)N)C(=O)N[C@H]1CSSC(C)(C)[C@@H](C(=O)N[C@H](C(=O)N2CCC[C@H]2C(=O)N[C@@H](CCC(=O)O)C(=O)O)[C@@H](C)CC)NC(=O)[C@H]([C@@H](C)CC)NC(=O)[C@@H]2C[C@@H]3CCCC[C@@H]3N2C(=O)[C@@H]2CCCN2C(=O)[C@H](CC(C)C)NC(=O)[C@H](CO)NC(=O)[C@H](CCCNC(=N)N)NC(=O)[C@H](CO)NC1=O) [AIC+SRSLP-(Oic)-I-(Pen)+IPE-OH] | 140 | 3.5
AICSRS[tBuAla]PPI[Pen]IPD-OH (disulfide 3-11; N-terminus assumed; SMILES CC[C@H](C)[C@H](NC(=O)[C@H](C)N)C(=O)N[C@H]1CSSC(C)(C)[C@@H](C(=O)N[C@H](C(=O)N2CCC[C@H]2C(=O)N[C@@H](CC(=O)O)C(=O)O)[C@@H](C)CC)NC(=O)[C@H]([C@@H](C)CC)NC(=O)[C@@H]2CCCN2C(=O)[C@@H]2CCCN2C(=O)[C@H](CC(C)(C)C)NC(=O)[C@H](CO)NC(=O)[C@H](CCCNC(=N)N)NC(=O)[C@H](CO)NC1=O) [AIC+SRS-((tBu)A)-PPI-(Pen)+IPD-OH] | 37 | 1.2
TICSRS[tBuAla]PPI[Pen]IPD-NH2 (disulfide 3-11; N-terminus assumed; SMILES CC[C@H](C)[C@H](NC(=O)[C@@H](N)[C@@H](C)O)C(=O)N[C@H]1CSSC(C)(C)[C@@H](C(=O)N[C@H](C(=O)N2CCC[C@H]2C(=O)N[C@@H](CC(=O)O)C(N)=O)[C@@H](C)CC)NC(=O)[C@H]([C@@H](C)CC)NC(=O)[C@@H]2CCCN2C(=O)[C@@H]2CCCN2C(=O)[C@H](CC(C)(C)C)NC(=O)[C@H](CO)NC(=O)[C@H](CCCNC(=N)N)NC(=O)[C@H](CO)NC1=O) [TIC+SRS-((tBu)A)-PPI-(Pen)+IPD-NH2] | 74.5 | 3.6
[NMeA]ICSRSLP[Oic]I[Pen]IPE-NH2 (disulfide 3-11; N-terminus assumed; SMILES CC[C@H](C)[C@H](NC(=O)[C@H](C)NC)C(=O)N[C@H]1CSSC(C)(C)[C@@H](C(=O)N[C@H](C(=O)N2CCC[C@H]2C(=O)N[C@@H](CCC(=O)O)C(N)=O)[C@@H](C)CC)NC(=O)[C@H]([C@@H](C)CC)NC(=O)[C@@H]2C[C@@H]3CCCC[C@@H]3N2C(=O)[C@@H]2CCCN2C(=O)[C@H](CC(C)C)NC(=O)[C@H](CO)NC(=O)[C@H](CCCNC(=N)N)NC(=O)[C@H](CO)NC1=O) [((N-Me)A)-IC+SRSLP-(Oic)-I-(Pen)+IPE-NH2] | 200 | 3.3
[NMeA]ICSRSLP[Oic]I[Pen]IP-NH2 (disulfide 3-11; N-terminus assumed; SMILES CC[C@H](C)[C@H](NC(=O)[C@H](C)NC)C(=O)N[C@H]1CSSC(C)(C)[C@@H](C(=O)N[C@H](C(=O)N2CCC[C@H]2C(N)=O)[C@@H](C)CC)NC(=O)[C@H]([C@@H](C)CC)NC(=O)[C@@H]2C[C@@H]3CCCC[C@@H]3N2C(=O)[C@@H]2CCCN2C(=O)[C@H](CC(C)C)NC(=O)[C@H](CO)NC(=O)[C@H](CCCNC(=N)N)NC(=O)[C@H](CO)NC1=O) [((N-Me)A)-IC+SRSLP-(Oic)-I-(Pen)+IP-NH2] | 99 | 3.4
[Sar]ICSRS[tBuAla]PPI[Pen]IP[PEG5]-NH2 (disulfide 3-11; N-terminus assumed; SMILES CC[C@H](C)[C@H](NC(=O)CNC)C(=O)N[C@H]1CSSC(C)(C)[C@@H](C(=O)N[C@H](C(=O)N2CCC[C@H]2C(=O)NCCOCCOCCOCCOCCOCCC(N)=O)[C@@H](C)CC)NC(=O)[C@H]([C@@H](C)CC)NC(=O)[C@@H]2CCCN2C(=O)[C@@H]2CCCN2C(=O)[C@H](CC(C)(C)C)NC(=O)[C@H](CO)NC(=O)[C@H](CCCNC(=N)N)NC(=O)[C@H](CO)NC1=O) [((N-Me)G)-IC+SRS-((tBu)A)-PPI-(Pen)+IP-(PEG4(19 atoms))-NH2] | 60 | 3.6
